This data set in a line: soluble on expression in E. coli; label from the status in PepcDB or PDB records.
Turning to “MGSSHHHHHHSSGLVPRGSHMEQMHSLESSLPPEQPPTKQAIESLNLELSQEFKLAANAVTRLYRVANEKNSLTKHQGYLTCLDDILCALDSNVTADELRAWCYKRRNDILSNSQDKSLNPVKERERKLNKFSENQHRENEAHKEPFEKDSAVKYNFSFNESNGDLSNINENIAPKFRLSMPPLSVEHPPRNASRIKSWKARTINHGRGDTRNLNDITGLGHERERDRENTHYEKKPKLDSDSEVDIRSFRQDMDL”, the “soluble on expression in E. coli” value is “soluble”.
To “GMKFNEFLNNLSNYEPGKDIEVIAKEYGVKEVIKLASNENPFGTPPKAIECLRQNANKAHLYPDDSMIELKSTLAQKYKVQNENIIIGAGSDQVIEFAIHSKLNSKNAFLQAGVTFAMYEIYAKQCGAKCYKTQSITHNLDEFKKLYETHKDEIKLIFLCLPNNPLGECLDASEATEFIKGVNEDCLVVIDAAYNEFASFKDSKKHLEPCELIKEFDNVLYLGTFSKLYGLGGLRIGYGIANANIISAFYKLRAPFNVSNLALKAAVAAMDDDEFTEKTLENNFSQMELYKEFAKKHNIKIIDSYTNFITYFFDEKNSTDLSEKLLKKGIIIRNLKSYGLNAIRITIGTSYENEKFFTEFDKILR” belongs “soluble”.
In the case of “MGHHHHHHSHTGKTTVAVNLAVFNHIDLFDLDVEEPNDRIFIKGEAEEWPAYRKVPEVRENCNACGVCKDVCQYSAIYVIDKAYPLPELCHSCGACIYLCPEKAMEEVDYQTGKIVRVKSDITLTYGEMRIGEASAVFLIKQVKELMGKNAIIDSPPGASCPMVESVSDADYVILVAEPTPFGLHDLKIAAEVVSDLGLKFGVVVNKHGLPFDGIERYCKEGGVEILGKIPFSKEIAEKYSRGELLHDMKDFFVQLYEG”, the “soluble on expression in E. coli” value was “not soluble”.
As for “MKTPPINQKSLRETESWKLLESSIIYYEGNPIGTVAAQDPELAALNYDQCFLRDFVPSAFVFLMDGQTDIVRNFLIETLTLQSHEKEMDCFQPGAGLMPASFKVESDGSKEYLVADFGEKAIARVPPVDSCMWWILLLRAYEKATGDLTLAREPKFQAGIKLILDLCLAHRFSMYPTMLVPDGAFMIDRRMGVYEHPLEIQVLFYAALRAARELLLPDGDGEQYLNKVHGRLGALQYHIRNYYWVDLKRLREIYRYKGNEFGKEIANKFNIFSQSIPDWVIEWLPEKGGYLAGNLGPGRMDFRFFALGNLMAILAGLASEEESQRIMNLFAHRWEDLIGYMPVKICYPALQGLEWQIVTGCDPKNIPWSYHNGGNWPVLLWLFTAAALKTGKVELAHEAIAIAEGRLSNDKFPEYYDGNNGRLIGKEARIYQTWSIAGLLVAKQFLANPDHVEFISFPDTFIGPGCSLLEHHHHHH”, the entry is “not soluble”; as for “ITEQTGQLVYDYNIEKDIADVAGNIEELTGFTSEELGNINLKLWTSRIHPEDLNRFLENHKKYLEPDRKSYRIEYRFRKKNGEYIYLEENWVSPEGDRKSSVKRVLGVIKNITERKQA”, “not soluble”.
For the sequence “MSLINKHVISEKIKKAIVEANIKINPEVEEIIERYEGPFSDIIKENYRVSKEEKLPLCQDTGIVEFFVFIGHEVKLEEPIEETLNRAVGEVYSEYPFRYSVVSDPLFERINTGTNTPAIVHIFQVKGKSLEIRFLVRGGGSENLTVLRMMTPTSDVEKVKEFVIEHIKEHGAKACPPLHVGIGIGGTADKALLLSKLALTKSFKERNKDPKYAGLEKELEKELNFLGIGFQGLGKGITVYSVHIEHFPTHIATLPVAVSVDCYLCRRGKVTFEDEGGSHHHHHH”, the “soluble on expression in E. coli” value is recorded as “soluble”.
As for “MDVYHDGACPEVKPVDNFDWSQYHGKWWEVAKYPSPNGKYGKCGWAEYTPEGKSVKVSRYDVIHGKEYFMEGTAYPVGDSKIGKIYHSRTVGGYTKKTVFNVLSTDNKNYIIGYSCRYDEDKKGHWDHVWVLSRSMVLTGEAKTAVENYLIGSPVVDSQKLVYSDFSEAACKVNNSNWSHPQFEK”, the “soluble on expression in E. coli” value is recorded as “soluble”.
For the sequence “MKEFWVWVEPFDRKIVSVALEAGANAVVIPEKGRVEEVKKVGRITVIAPDGDLKLGEDVVYVLIKGKEDEERAAKYPPNVKVIVETTDWTVIPLENLIAQREELYAVVKNAQEAEVALQTLEKGVKGVVLKSRDINEIKKVGQIVSEHEEKLELVTIKITKILPLGLGDRVCVDTISLLHRGEGMLVGNSSGGMFLVHAETEENPYVAARPFRVNAGAVHMYIRVPNNRTKYLCELKAGDKVMVYDYKGRGRVTYVGRAKVERRPMLLIEGRYENKKLSCILQNAETIRLTKPDGTPISVSELKEGDEVLGYVEEAGRHFGMKVEETIIEK”, the “soluble on expression in E. coli” value is listed as “not soluble”.
As for “MKNDTAALAADIVDFWKKAGPDKWFDKDAAFDNHFHDRFRDAHFAAARRELDGWLEGAESSLALMLLLDQFPRNCFRGTAHMYATDPLARFFADEAIRRGHDQAVSEDLRVFFYLPFSHAEDIAAQQRACDLNQPLGGLYLHHAEEHRDIVERFGRFPHRNGILLRETTPEERQYLEEGGFSG”, the “soluble on expression in E. coli” value is listed as “soluble”.
Consider “MSLSEIVVSKFGGTSVADFDAMNRSADIVLSDANVRLVVLSASAGITNLLVALAEGLEPCERFEKLDAIRNIQFAILERLRYPNVIREEIERLLENITVLAEAAALATSPALTDELVSHGELMSTLLFVEILRERDVQAQWFDVRKVMRTNDRFGRAEPDIAALAELAALQLLPRLNEGLVITQGFIGSENKGRTTTLGRGGSDYTAALLAEALHASRVDIWTDVPGIYTTDPRVVSAAKRIDEIAFAEAAEMATFGAKVLHPATLLPAVRSDIPVFVGSSKDPRAGGTLVCNKTENPPLFRALALRRNQTLLTLHSLNMLHSRGFLAEVFGILARHNISVDLITTSEVSVALTLDTTGSTSTGDTLLTQSLLMELSALCRVEVEEGLALVALIGNDLSKACAVGKEVFGVLEPFNIRMICYGASSHNLCFLVPGEDAEQVVQKLHSNLFEEGHHHHHH”, for which the “soluble on expression in E. coli” value was “soluble”.
To “MEITKTDLFYNISEQQQAEMMHCFKTYTRTYKSGEVICFYDDNNIGVGIIESGSARVIHFLPNGTQTILEQLCRGDLFGQLFYHYACPESISLEATCDCVVRFIDYEHIIKRCSKACPHHSQLVNNILVIISDKTRSICEHLEVLSGRTIRDRLNNYFEILSSKSGSNTFKLPFTMTALADYLSVDRSAMSRELKKMKDEGLIQTNKGIVTINR” belongs “not soluble”; to “QGMISFTQQNEQEADRIGIQVLQRSGFDPQAMPTFLEKLLDQARYSSRPPEILLTHPLPESRLADARNRANQMRPIVVQSSEDFYLAKVRTLGMYNSGRNQLTSDLLDEWAKGNVRQQRAAQYGRALQAMEANKYDEARKTLQPLLAAEPGNAWYLDLATDIDLGQNKANDAINRLKNARDLRTNPVLQLNLANAYLQGGQPQEAANILNRYTFNNKDDSNGWDLLAQAEAALNNRDQELAARAEGYALAGRLDQAISLLSSASS”, “not soluble”; to “MAHHHHHHMIDDVRICHLVLQDVKERLPLYESRLEAVNNSHVVISCWNESVKAFVPVPVAEDVEFTSDVLHEVVSLVDGLRQLGCTDFFVVFVDSGGTLSFYHVDTLRLLQSGRSGSS”, “not soluble”.
For the sequence “EAMFCDFPKINHGILYDEEKYKPFSQVPTGEVFYYSCEYNFVSPSKSFWTRITCAEEGWSPTPKCLRLCFFPFVENGHSESSGQTHLEGDTVQIICNTGYRLQNNENNISCVERGWSTPPKCRSTISAEKCGPPPPIDNGDITSFLLSVYAPGSSVEYQCQNLYQLEGNNQITCRNGQWSEPPKCLDPCVISQEIMEKYNIKLKWTNQQKLYSRTGDIVEFVCKSGYHPTKSHSFRAMCQNGKLVYPSCEEK”, the “soluble on expression in E. coli” value is reported as “not soluble”.
Regarding “MKIAIASGKGGTGKTTVAVNLALALEEVQLFDCDVEEPNCNLFLGFEMEPVEEVVFLVPEINPDKCTLCRGCSDFCRYNALAAIPNRILSFPSLCHGCGGCSFVCPAGAIEEKPETIGIIQKALSDSPLTFFCGTLKIGKATATPVIKSLQNHIDESRPAIIDSPPGTACPVLAVMGFADYCVLVTESTPFGFHDFCLALEAARALNVPVGVVLNRDGLGDSRVEDFCRAEGIPILLRIPNDRTIARLYSEGIPFVKEMPEWKKQFKDMFETIKTGLYESKGVQLEHHHHHH”, the “soluble on expression in E. coli” value is recorded as “not soluble”.
Regarding “MGSDKIHHHHHHMQVGTIFGHKNSEGTLVSSAAIIPYESKLASIGMVIVSSQCRGLGLGREVTEACIKATLEDTTLMLIATDEGRPLYERLGFAAVERIHKHLCDDYKEPESIPSMDVTIEELRSNDFRQLVQLDEGAMGVRRSRFLKQRTTQANQSLVAKDKAGNVIGYGLSILGPIHLIIGPIVAPNHEIACLILDRLACQHKGKLRMDVPSGHHTFLQHLQRRGFTEVNTPPVMAKQSAYEPRRNGTLFAIAAQVFG”, the “soluble on expression in E. coli” value was “not soluble”.
